# Results published in patent US20230002480A1.
# Legend:
# Assay in all cases: cell-based or functional assay
# [1] = molecular target: HIV-1 Env of pseudovirus WEAU_d15_410_787 (clade B (T/F)) (HIV-1)
# [2] = molecular target: HIV-1 Env of pseudovirus T251-18 (HIV-1)
# [3] = molecular target: HIV-1 Env of pseudovirus CNE53 (clade BC) (HIV-1)
# [4] = molecular target: HIV-1 Env of pseudovirus 3415.v1.c1 (HIV-1)
# [5] = molecular target: HIV-1 Env of pseudovirus HIV-16055-2.3 (clade C) (HIV-1)
# [6] = molecular target: HIV-1 Env of pseudovirus 246F C1G (clade C (T/F)) (HIV-1)
# [7] = molecular target: HIV-1 Env of pseudovirus C1080.c03 (HIV-1)
# [8] = molecular target: HIV-1 Env of pseudovirus Du172.17 (clade C) (HIV-1)
# [9] = molecular target: HIV-1 Env of pseudovirus C4118.c09 (HIV-1)
# [10] = molecular target: HIV-1 Env of pseudovirus A07412M1.vrc12 (clade D) (HIV-1)
# [11] = molecular target: HIV-1 Env of pseudovirus 89-F1_2_25 (clade CD) (HIV-1)
# [12] = molecular target: HIV-1 Env of pseudovirus 6540.v4.c1 (clade AC) (HIV-1)
# [13] = molecular target: HIV-1 Env of pseudovirus 3016.v5.c45 (clade D) (HIV-1)
# [14] = molecular target: HIV-1 Env of pseudovirus 6811.v7.c18 (clade CD) (HIV-1)
# [15] = molecular target: HIV-1 Env of pseudovirus 3817.v2.c59 (clade CD) (HIV-1)
# [16] = molecular target: HIV-1 Env of pseudovirus QH0692.42 (HIV-1)
# [17] = molecular target: HIV-1 Env of pseudovirus 231965.c01 (clade D) (HIV-1)
# [18] = molecular target: HIV-1 Env of pseudovirus X1632_S2_B10 (clade G) (HIV-1)
# [19] = molecular target: HIV-1 Env of pseudovirus 3103.v3.c10 (clade ACD) (HIV-1)
# [20] = molecular target: HIV-1 Env of pseudovirus 6952.v1.c20 (clade CD) (HIV-1)
# [21] = molecular target: HIV-1 Env of pseudovirus P1981_C5_3 (clade G) (HIV-1)
# [22] = molecular target: HIV-1 Env of pseudovirus 6480.v4.c25 (clade CD) (HIV-1)
# [23] = molecular target: HIV-1 Env of pseudovirus 231966.c02 (clade D) (HIV-1)
# [24] = molecular target: HIV-1 Env of pseudovirus 6545.v4.c1 (clade AC) (HIV-1)
# [25] = molecular target: HIV-1 Env of pseudovirus 3301.v1.c24 (clade AC) (HIV-1)
# [26] = molecular target: HIV-1 Env of pseudovirus 0815.v3.c3 (clade ACD) (HIV-1)
# [27] = molecular target: HIV-1 Env of pseudovirus X2131_C1_B5 (clade G) (HIV-1)
# [28] = molecular target: HIV-1 Env of pseudovirus 1012_11_TC21_3257 (HIV-1)
# [29] = molecular target: HIV-1 Env of pseudovirus TRO.11 (HIV-1)
# [30] = molecular target: HIV-1 Env of pseudovirus 6041.v3.c23 (clade AC) (HIV-1)
substance,measurement,setting,value
N49P11 (antibody),IC50,[1],1.7 µg/mL
same,IC80,[1],6.02 µg/mL
same,MPI,[1],100
same,IC50,[2],3.05 µg/mL
same,IC80,[2],16.7 µg/mL
same,MPI,[2],100
same,IC50,[3],0.43 µg/mL
same,IC80,[3],2.88 µg/mL
same,MPI,[3],100
same,IC50,[4],1.86 µg/mL
same,IC80,[4],10.3 µg/mL
same,MPI,[4],100
same,IC50,[5],0.091 µg/mL
same,IC80,[5],0.503 µg/mL
same,MPI,[5],100
same,IC50,[6],8.48 µg/mL
same,IC80,[6],20.9 µg/mL
same,MPI,[6],100
same,IC50,[7],0.162 µg/mL
same,IC80,[7],1.45 µg/mL
same,MPI,[7],100
same,IC50,[8],5.65 µg/mL
same,IC80,[8],17.9 µg/mL
same,MPI,[8],100
same,IC50,[9],0.094 µg/mL
same,IC80,[9],0.346 µg/mL
same,MPI,[9],100
N49P7.2 (antibody),IC50,[1],0.052 µg/mL
same,IC80,[1],0.15 µg/mL
same,MPI,[1],100
same,IC50,[2],0.222 µg/mL
same,IC80,[2],0.741 µg/mL
same,MPI,[2],100
same,IC50,[3],0.1 µg/mL
same,IC80,[3],0.277 µg/mL
same,MPI,[3],100
same,IC50,[4],0.381 µg/mL
same,IC80,[4],1.58 µg/mL
same,MPI,[4],100
same,IC50,[5],0.204 µg/mL
same,IC80,[5],0.721 µg/mL
same,MPI,[5],100
same,IC50,[6],0.049 µg/mL
same,IC80,[6],0.192 µg/mL
same,MPI,[6],100
same,IC50,[7],0.279 µg/mL
same,IC80,[7],1.76 µg/mL
same,MPI,[7],100
same,IC50,[8],0.29 µg/mL
same,IC80,[8],1.08 µg/mL
same,MPI,[8],100
same,IC50,[9],0.079 µg/mL
same,IC80,[9],0.292 µg/mL
same,MPI,[9],100
N49P7 (antibody),"IC50, neutralization titer in TZM.bl cells",[10],0.108 µg/mL
same,"IC80, neutralization titer in TZM.bl cells",[10],0.645 µg/mL
same,"MPI, neutralization in TZM.bl cells",[10],100
same,"IC50, neutralization titer in TZM.bl cells",[11],21.6 µg/mL
same,"IC80, neutralization titer in TZM.bl cells",[11],> 50 µg/mL
same,"MPI, neutralization in TZM.bl cells",[11],80
same,"IC50, neutralization titer in TZM.bl cells",[12],11.7 µg/mL
same,"IC80, neutralization titer in TZM.bl cells",[12],33.2 µg/mL
same,"MPI, neutralization in TZM.bl cells",[12],92
same,"IC50, neutralization titer in TZM.bl cells",[13],0.221 µg/mL
same,"IC80, neutralization titer in TZM.bl cells",[13],1.04 µg/mL
same,"MPI, neutralization in TZM.bl cells",[13],100
same,"IC50, neutralization titer in TZM.bl cells",[14],0.229 µg/mL
same,"IC80, neutralization titer in TZM.bl cells",[14],0.992 µg/mL
same,"MPI, neutralization in TZM.bl cells",[14],100
same,"IC50, neutralization titer in TZM.bl cells",[15],0.716 µg/mL
same,"IC80, neutralization titer in TZM.bl cells",[15],3.73 µg/mL
same,"MPI, neutralization in TZM.bl cells",[15],99
same,neutralization IC50,[16],0.663 µg/mL
same,neutralization IC80,[16],2.41 µg/mL
same,neutralization MPI,[16],100
same,"IC50, neutralization titer in TZM.bl cells",[17],0.054 µg/mL
same,"IC80, neutralization titer in TZM.bl cells",[17],0.193 µg/mL
same,"MPI, neutralization in TZM.bl cells",[17],100
same,"IC50, neutralization titer in TZM.bl cells",[18],12 µg/mL
same,"IC80, neutralization titer in TZM.bl cells",[18],40.4 µg/mL
same,"MPI, neutralization in TZM.bl cells",[18],85
same,neutralization IC50,[2],0.178 µg/mL
same,neutralization IC80,[2],0.62 µg/mL
same,neutralization MPI,[2],100
same,"IC50, neutralization titer in TZM.bl cells",[19],0.158 µg/mL
same,"IC80, neutralization titer in TZM.bl cells",[19],0.509 µg/mL
same,"MPI, neutralization in TZM.bl cells",[19],100
same,"IC50, neutralization titer in TZM.bl cells",[20],18.4 µg/mL
same,"IC80, neutralization titer in TZM.bl cells",[20],38.9 µg/mL
same,"MPI, neutralization in TZM.bl cells",[20],91
same,neutralization IC50,[4],0.16 µg/mL
same,neutralization IC80,[4],0.55 µg/mL
same,neutralization MPI,[4],100
same,"IC50, neutralization titer in TZM.bl cells",[21],0.113 µg/mL
same,"IC80, neutralization titer in TZM.bl cells",[21],0.274 µg/mL
same,"MPI, neutralization in TZM.bl cells",[21],100
same,"IC50, neutralization titer in TZM.bl cells",[22],0.031 µg/mL
same,"IC80, neutralization titer in TZM.bl cells",[22],0.113 µg/mL
same,"MPI, neutralization in TZM.bl cells",[22],100
same,"IC50, neutralization titer in TZM.bl cells",[23],0.102 µg/mL
same,"IC80, neutralization titer in TZM.bl cells",[23],0.43 µg/mL
same,"MPI, neutralization in TZM.bl cells",[23],100
same,"IC50, neutralization titer in TZM.bl cells",[24],2 µg/mL
same,"IC80, neutralization titer in TZM.bl cells",[24],14.7 µg/mL
same,"MPI, neutralization in TZM.bl cells",[24],96
same,"IC50, neutralization titer in TZM.bl cells",[25],0.025 µg/mL
same,"IC80, neutralization titer in TZM.bl cells",[25],0.069 µg/mL
same,"MPI, neutralization in TZM.bl cells",[25],100
same,"IC50, neutralization titer in TZM.bl cells",[26],0.016 µg/mL
same,"IC80, neutralization titer in TZM.bl cells",[26],0.053 µg/mL
same,"MPI, neutralization in TZM.bl cells",[26],100
same,neutralization IC50,[7],0.114 µg/mL
same,neutralization IC80,[7],0.765 µg/mL
same,neutralization MPI,[7],100
same,"IC50, neutralization titer in TZM.bl cells",[27],0.081 µg/mL
same,"IC80, neutralization titer in TZM.bl cells",[27],0.273 µg/mL
same,"MPI, neutralization in TZM.bl cells",[27],100
same,neutralization IC50,[28],0.046 µg/mL
same,neutralization IC80,[28],0.125 µg/mL
same,neutralization MPI,[28],100
same,neutralization IC50,[29],0.044 µg/mL
same,neutralization IC80,[29],0.16 µg/mL
same,neutralization MPI,[29],100
same,neutralization IC50,[9],0.043 µg/mL
same,neutralization IC80,[9],0.147 µg/mL
same,neutralization MPI,[9],100
same,"IC50, neutralization titer in TZM.bl cells",[30],0.047 µg/mL
same,"IC80, neutralization titer in TZM.bl cells",[30],0.222 µg/mL
same,"MPI, neutralization in TZM.bl cells",[30],100
